Measured values reported in a protein production outcome set (Wang et al. 2014).

Test: label from the status in PepcDB records

Row | Sequence | protein production
1 | MCEYTYSNGKKCRRKPLKGSKYCSLHIPFEEGELLYGDRIKYIKKRAFERALERGIRNFEGVKLYDVIIVGKEINEALIFRNSIIKRLVIVTSKIKSLSLIDTTIDTLVIVNSEVDFFYVNGGSIYGVSICSVKFSSSILFRDSSIRYVMINSTEFSPKEVTTEEEFGEKVRIAGRIELANLKDVRRIALNSKYPLMAKIMEEFGIKLSLDRKKPVRVHTLTITGVEFDESPRFRKQVRIFINRFSGQLIFENLSVPGHVEIVNSRVRYPEFVHVIIHNNLVLRNTRLYSDENWNLAYLPNLLAELNVYGFIVIDNCQFNNPYLAEVFYRIARTTWEGSGDKENADEYYYLEMLARRKKVIQHYRKGPRTLKKMVKLLEVLFEFLFADLTCKYGTDWKRPVFLWMGLVIFVFPVFYALTKSVVPTSSLFDYVYFSIVTATTLGYGDLHPIGVGKVIASIEAIFGMFMWAVFLTVFARKYMR | failed
2 | MSLNDNNTILGFDVNLICDFFLNTERQGPGSPEVTLKALSFIDNLTNKSLIADLGCGTGGQTMILAQHVPGKITGIDFFPGFIERFNKNAEKLNLQNRVKGIVGSMDDLSFEKDSLDLIWSEGAIYNIGFERGLKEWRNYLKPGGYLAVSESVWFTDQRPAEIHDFWMSAYTEIDTVPNKVAQIQKAGYIPVATFILPENCWIEHYFAPQAKAEEIFRRKHAGSRIVEELITSNHHEAELYSKYKAYYGYAFFICKKGFSLREGHHHHHH | not failed
3 | MNFWEVVLIVVNFSLLSWILLIGRETKKWSKLATLIAVVMVTVQLLAEGFRWQMIPAYVSPVILILCYLLAGRKKGFRSSGIFIVKTSLLCIYLSVAVALPLLMPVFSFEEPTGPHRVGTKLYHWVDHQRNEPYSKNPNDRRELMVQIWYPAAEKSKGDPEPYIRNINELSKGLEKTLSIPAFAFSHMELVKSHSFMDLQLSDSENHYPILLFSHGFNGFRNQNTFQVEELASQGYIVLSIDHTFDAAATVFPGGRTAYVQPINLTDEGDSHIKLWEEDVSFVLNQIEKLNENDETGFFTGRLDTSRIGMFGHSYGGATAAQILAKDSRVKAAINMDGTLYGEILPESGIGKPFLLMNAEEPDEADPFEVRERYGRGLAGGGMSMVIPHTDHTSFTDLHLFSPLLQSPGENPKEVHRIINEFSLAFFDQYVKQKDDGSTLKRLITQYPEVNFKINR | failed
4 | MGVFLVLLGGIFWAISGVLAEYLFKNNYSVDWVCFYRLLSTGLILIFLSFKTQKILVFANLKESLSICIFGFFGLLLTQFGYFKAIYYTDAGTATMIQYCAPLIIMLYLCFKNKKFPKLIEIFALILIIFALFLLATKGDIEAVVLNYWGIFWAVIGAFGVAFYSLSAREVILKYGLFWIMGWASLFASFVFLLILQFDKGLIHYAFNLKAFFSMGGIVFIGTIGAFCLYLKGVEYIGALRASMIASIEPVAAALMSFLFLKTRYSLLDIFAFVLIILSVILNAKKTKAS | failed
5 | MADETNALRQKNRELNKKIDWQKDYDREKLERDNRDLEQCKEDLLAANENLRNRIQEWENEKNKLDPRDERIKELEEEKRELEGILAQKENAEQKYNTLSVKNKQLEAELDMLNEKFEKLKNMYAGVEDFEKRQKNIKEQIVKTNPKVLGAPSNEVEELAFLERIEKGMQEFNVFYPKRLLYMFHTALKSTSLSPLSVLSGVSGTGKSELPKLYVHFGGLNFLSIAVQPTWDSPESLMGYFHAIENKFDATEFLRFFIQTTLSNNEEPYGLKEAMSIVLLDEMNLAHIELYFAEFLSKLEIKCSQETNISIKLGTGLTWELPLGDNLLFVGTMNEDESTKMLSDKVLDRAFCLNFERPKILKGKQQKPIPSNDGYLKVETFNRWINKKGDQEAKLEGKYKKLTEEINERLDACGRSIGHRVWQSMSTYMHNHPLVLHASDKNKALQFAYEECLVLKIFPKLRGVQTRNNQHLTKIQDLLKDFSVSSDFKQAMENDFKEFVFNSTNYLNNVEYEKLLKK | failed
6 | MDEKEKNLNENSENESTPKREVEDTLHTPESAQPVQETPIVEGVTPEGEKFAGATEDAAEASSTNAFFEEASNKESEPARPAPGPRRAGTTGGGAVPPNRVNNGGSGNGNGEPPKRGKHFIGYFLTALIGVIIGGLIIFFVAWDNGDNADTTSNSNNKATKVEKVSVDTTSDVTKAVDKVQDAVVSVLNYQSSSSLDGTTTSEQEASSGSGVIYKKANGKAYIVTNNHVVADANKLEVTFTNGKKSEAKLLGTDEWNDLAVLEIDDKNVTTVAAFGDSDSLKLGEPAIAIGSPLGTEFSGSVTQGIISGLNRAVPVDTNGDGTEDWEADVIQTDAAINPGNSGGALINIEGQVIGINSMKISMENVEGISFAIPSNTVEPIIEQLETKGEVERPSLGVSLRDVDTIPETQQKNILKLPDSVDYGAMVQQVVSGSAADKAGLKQYDVIVELNGQKVTNSMTLRKILYGNDVKIGDKVKVKYYRDGKEKSTDIKLEAAKTTT | failed
7 | MANSTESGSLQSSSTVKVRSHYRPNNGTGSPGGRPRPKRGFLPLGKGLVWGGLVTLTATVAAIAGVGIGFFTPGPKGLVQQVIPGQSAGVEAGQADLFPYHISRPVNILVMGIDRVEPTEEEPNVDEFGGRSDTMLLVRFDPRENGLKLLSIPRDTRVFIPDVGYTKINDANAYGGPQLAARVINRNLGEVPIDRYVRVTTDALQELVDLVGGVEVFVPRPMFYEDKTQQLLIDLPAGLQTLNGQQAEQFVRFRYDANGDIGRVQRQETLLKALQNRLSHPSMITRIPKAIGIMQKTVDTNLTMEEILALVNFGRQLDRQEVQMVMLPGRFSQPAEFDGRSYWVMSDVGKRQVLRNYFDVIEEVPTWAETPGRSPESLRIALQNATDDPQALERVKEYLQSKDFRNFYETSESPQLLAETKILVQRGDLDGAHYLRQTLGGGVVEASSVGDLGSDLTIQVGMDLDQWLKESTPVDDSTPQF | failed
8 | MNLSQQNQHSNPITEAAKATFPYSVPMIAGFLFLGIAYGIYMKALGFGFLYPTLMALLIYAGSVEFIAAGALIAPFSPISVLLITLMISARQIFYGISMLEKYGIHIGKKRWYLITTLVDESFSLNYMAKIPPHLDKGWYMFFVSLYLHIYWVLGAAMGNLFGTVLPFNLKGVEFSMTALFLVIFAENWLKGKSHESSLLGLGIALVFLLIIGKEYFLIPTLIGIWLILTMRITKLETKLESLK | failed
9 | MPVAATNSETAMQQVLDNLGSLPSATGAAELDLIFLRGIMESPIVRSLAKAHERLEETKLEAVRDNNLELVQEILRDLAQLAEQSSTAAELAHILQEPHFQSLLETHDSVASKTYETPPPSPGLDPTFSNQPVPPDAVRMVGIRKTAGEHLGVTFRVEGGELVIARILHGGMVAQQGLLHVGDIIKEVNGQPVGSDPRALQELLRNASGSVILKILPSYQEPHLPRQVFVKCHFDYDPARDSLIPCKEAGLRFNAGDLLQIVNQDDANWWQACHVEGGSAGLIPSQLLEEKRKAFVKRDLELTPNSGTLCGSLSGKKKKRMMYLTTKNAEFDRHELLIYEEVARMPPFRRKTLVLIGAQGVGRRSLKNKLIMWDPDRYGTTVPYTSRRPKDSEREGQGYSFVSRGEMEADVRAGRYLEHGEYEGNLYGTRIDSIRGVVAAGKVCVLDVNPQAVKVLRTAEFVPYVVFIEAPDFETLRAMNRAALESGISTKQLTEADLRRTVEESSRIQRGYGHYFDLCLVNSNLERTFRELQTAMEKLRTEPQWVPVSWVY | not failed
10 | MIDEWPVPTAAAAVIGPSGVLATHGDDAKPFALASVTKLLVARAAQVAIEEGVVELDTPAGPDGSTVRHLLAHTSGVAMNSADTVAQVGQRRVYSNFGFGLLAHAIEDAAEIEFGRYLTEAVFEPLGMSTSKLLGGADAAGFGVTSTVSDLARFAGDLLRPALVSQQMHDEATSVQFPGVNGVLPGFGSQRPNDWGLGFEIRDGKTPHWTGSSNSPRTFGHFGQSGTFLWVDPVADLALLVLTDRDFGDWTYPLWPAISDGVLREIGTHLEHHHHHH | failed
11 | MVQIQGCVVAAALCAVITLIAMQWLMAFDAANLVMLYLLGVVVVALFYGRWPSVVATVINVVSFDLFFIAPRGTLAVSDVQYLLTFAVMLTVGLVIGNLTAGVRYQA | not failed
12 | VILKKIFIALIALVVIINTVSFTAVSASTPTWLEQTMNSNEPFIKEIEKETGKTRANITQTDLEAITALRVTGASDIPTNIDMLTHLTTLEVKSGTLSSVSNSVGNLKELKILVLNDNNLSTFPTIVFQLPKLEELQVSGGTIEEIPATITNMASHLKFLGILNNHLVKVPDAIFTTNWTNATGGDLDLMAAGNQIVTNIPANYISQFNNGNNLLEFYDNNYQKQDQLTTTPGYTIDVPVGTDFNQLTPDKTKLALTSGRTLLAQHEFEYYDDGSSSLIHNGVAAAPGQATIFIKSKFSTQSNKFARTQVTVNIIALNGGPITVKHEDTKGQELAPPVILNGKDGDPYTTTQKTFPGYTLVATPANQNGTFTMNPATVNYVYSANDYKLTSTFKDAQGQELKAPVVDTKDYHIQDNYTTTAATIPGYSLVSTPANQNGTFGAGNVTVNYVYKKDDYTLTSTYKDTNGQELKAPVVDATTYHYQDTYTTTAAVFPGYTLVATPTNATGTFGSSNITVNYVYQANGYQLTSTFKDQQGKTIAPDDVDAKTYHVNDPYTTTAKTIPGYTLVTTPANNQGNFGTSDITVDYVYKAEDYTLTSTYKDAQGKELKQPVVDSKKYHIQDNYSTSAAAIPGYTLVATPANETGTFHTSDVTVNYVYKLTDLKLTSTYKDAQGTELKAPVVDSKTYHIQDNYATTAAVIPGYTLVATPANQSGTFGSTDIQVNYVYQAVAYKLTSTYKDQQGNDLALPKVDTKTYHIQDGYTTSDIAIPGYTLVAAPTNQTGTFGASDVTVNYVYKANDYTLTSTYKDAQGKELKTPVIDSQKYHINDTYTTTGATIPGYTLVAAPANQSGTFGAANVTVNYVYKADDYTLTSTYKDANGKELKAPVVDSKTYHTKDNYSTSAATIPGYTLVAVPANQTGTFNTSNVTVNYVYKANEYTLTSTFKNVQGTELKPAIVKKGFIIKDGYATSGVTIPGYTLVATPSNKKGTFGASNVTVNYVYKANGYALITTYKDTQGKDLKPLAIDTKIYNINDPYTATALNIPGYTLTTTPANEKGVFGASDETVNYVYKANDYTLTTTYKDANGKELQAPKVDAKTYHIQDTYKTTAAVIPGYTLVATPKNDQGAFGANNVTVNYVYQTNDYTLTSTFKDAQGNELKAADVDAQKYHIHDTYTSKAAVIPGYTLEKTPTNETGTFNASDIQVNYVYKANDYQLTSTFKDQQGNEIALPTVDAKTYHIHDAYTTKARLIPGYSLVAAPKNQIGAFGTSDVTVNYVYKKDAIIKPITPAKPTILTIKTPASKVIKTKVVKQTLPKTGDDDAGLLNLLRLIGLVLILGVFLAVGSKKLR | failed
13 | MVLTSGAGASLVLLNTFSEIYMRISTRVIGGALIATLLTQLTACGTIFYPDRRGQIGGKIDPVVAAMDAIGILFYVIPGLIAFGIDFATGAIYYPGGRTAQVDPAKLQEAVSPDGKVDNLKLQAILESELGQRLPLNDPRLIQHRGSIEQLASLGLVPAA | failed
14 | MIKSTNIQAIGSGIMHQINNVYSLTPLSLPMELTPSCNEFYLKTWSEWEKNGTPGEQRNIAFNRLKICLQNQEAELNLSELDLKTLPDLPPQITTLEIRKNLLTHLPDLPPMLKVIHAQFNQLESLPALPETLEELNAGDNKIKELPFLPENLTHLRVHNNRLHILPLLPPELKLLVVSGNRLDSIPPFPDKLEGLALANNFIEQLPELPFSMNRAVLMNNNLTTLPESVLRLAQNAFVNVAGNPL | failed
15 | MRFPFCTGGKTFVLWDVEVCPIPDGLGPHDVFSNIKRVLMDNGYRGDVSTTPYTDLTKSNGEFNGIPVRHLSAGDRDARLEVYMIDLYSCVVKEDGPLNLMLFVGDISSRSKDFFRVFRLLQSSSSDSSVPLSLTQDGICKALTFGEEVIIRECGERRKVPNSD | not failed
